Assay [1] concerns the target biotinylated human LAP-TGFβ1 (Example 14) (human) (UniProt P01137). Kind of assay: BLI, antigen on tip, CHO supernatant; ratio to wild type. For orientation: BLI is a label-free optical method that tracks binding on a fibre tip over time.
Assay [2] has as its target fusion protein of a human IgG1 Fc domain and human LAP-TGFβ1 (human) (UniProt P01137). In words: SPR (Biacore T200), antigen-Fc captured, 1:1 model. In general terms: In SPR one partner is held on a chip, and binding of the other changes the refractive index at the surface.
Assay [3] has as its target fusion protein of a human IgG1 Fc domain and rat LAP-TGFβ1 (human; rat) (UniProt P17246). Kind of assay: SPR (Biacore T200), antigen-Fc captured, 1:1 model.
Assay [4] concerns the target fusion protein of a human IgG1 Fc domain and mouse LAP-TGFβ1 (human; mouse) (UniProt P04202). Kind of assay: SPR (Biacore T200), antigen-Fc captured, 1:1 model.
Assay [5] concerns the target fusion protein of a human IgG1 Fc domain and cynomolgus monkey LAP-TGFβ1 (human; cynomolgus monkey). In words: SPR (Biacore T200), antigen-Fc captured, 1:1 model.
In assay [6] the target is fusion protein of a human IgG1 Fc domain and human LAP-TGFβ1 (human) (UniProt P01137). In words: SPR (Biacore T200), antigen-Fc captured, 1:1 model. The source holds these as a separate data set.
In assay [7] the target is human-chicken LAP-TGFβ1 chimera #1 on HT1080 cells (human/chicken chimera). Kind of assay: flow cytometry, transduced HT1080 cells. On the technique in general: In flow cytometry, cells or beads pass a laser one at a time.
The target in assay [8] is human-chicken LAP-TGFβ1 chimera #2 on HT1080 cells (human/chicken chimera). Kind of assay: flow cytometry, transduced HT1080 cells.

These results are taken from patent publication US20220017612A1.

Residue numbers refer to the chain shown, from its start. Where two headings read alike, the source gives them in different places.

fusion protein of a human IgG1 Fc domain and mouse LAP-TGFβ1 (human; mouse), sequence (P04202 30-390 limits assumed): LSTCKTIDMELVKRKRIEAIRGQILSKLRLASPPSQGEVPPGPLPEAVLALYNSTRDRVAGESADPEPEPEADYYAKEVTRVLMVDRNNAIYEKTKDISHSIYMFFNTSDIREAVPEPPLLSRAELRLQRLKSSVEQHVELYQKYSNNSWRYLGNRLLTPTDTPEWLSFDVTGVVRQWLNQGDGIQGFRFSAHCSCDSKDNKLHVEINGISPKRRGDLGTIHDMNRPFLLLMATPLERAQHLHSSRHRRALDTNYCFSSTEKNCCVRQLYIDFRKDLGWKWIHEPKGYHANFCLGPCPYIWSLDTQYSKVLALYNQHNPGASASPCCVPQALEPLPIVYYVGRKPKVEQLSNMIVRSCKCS
biotinylated human LAP-TGFβ1 (Example 14) (human), sequence (P01137 30-390 limits assumed): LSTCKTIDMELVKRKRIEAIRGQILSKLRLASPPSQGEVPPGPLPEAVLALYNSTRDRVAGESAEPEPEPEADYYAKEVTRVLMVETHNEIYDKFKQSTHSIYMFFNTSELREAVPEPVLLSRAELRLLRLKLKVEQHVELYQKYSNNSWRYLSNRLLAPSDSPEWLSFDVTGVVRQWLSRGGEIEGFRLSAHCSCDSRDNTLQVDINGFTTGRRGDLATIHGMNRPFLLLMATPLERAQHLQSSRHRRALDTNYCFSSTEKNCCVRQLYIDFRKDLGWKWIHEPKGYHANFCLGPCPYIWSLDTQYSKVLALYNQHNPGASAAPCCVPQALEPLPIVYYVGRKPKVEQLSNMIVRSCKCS
fusion protein of a human IgG1 Fc domain and human LAP-TGFβ1 (human), sequence (P01137 30-390 limits assumed): as above
fusion protein of a human IgG1 Fc domain and rat LAP-TGFβ1 (human; rat), sequence (P17246 30-390 limits assumed): as the sequence (P04202 30-390 limits assumed) above, with E93D, S99T, L131F, S134T, K202V counted along it
human-chicken LAP-TGFβ1 chimera #2 on HT1080 cells (human/chicken chimera), sequence (chain, as listed by the source mutant limits assumed): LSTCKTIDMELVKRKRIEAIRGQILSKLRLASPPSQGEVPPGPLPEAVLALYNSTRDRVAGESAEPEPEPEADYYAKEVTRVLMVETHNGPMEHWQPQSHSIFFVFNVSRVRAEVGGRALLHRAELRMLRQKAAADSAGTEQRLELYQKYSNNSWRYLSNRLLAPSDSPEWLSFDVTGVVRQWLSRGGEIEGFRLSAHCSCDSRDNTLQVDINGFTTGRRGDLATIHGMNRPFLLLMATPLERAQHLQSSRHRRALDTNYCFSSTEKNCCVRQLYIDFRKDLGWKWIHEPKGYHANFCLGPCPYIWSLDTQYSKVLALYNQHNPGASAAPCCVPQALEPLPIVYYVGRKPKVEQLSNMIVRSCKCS
human-chicken LAP-TGFβ1 chimera #1 on HT1080 cells (human/chicken chimera), sequence (chain, as listed by the source mutant limits assumed): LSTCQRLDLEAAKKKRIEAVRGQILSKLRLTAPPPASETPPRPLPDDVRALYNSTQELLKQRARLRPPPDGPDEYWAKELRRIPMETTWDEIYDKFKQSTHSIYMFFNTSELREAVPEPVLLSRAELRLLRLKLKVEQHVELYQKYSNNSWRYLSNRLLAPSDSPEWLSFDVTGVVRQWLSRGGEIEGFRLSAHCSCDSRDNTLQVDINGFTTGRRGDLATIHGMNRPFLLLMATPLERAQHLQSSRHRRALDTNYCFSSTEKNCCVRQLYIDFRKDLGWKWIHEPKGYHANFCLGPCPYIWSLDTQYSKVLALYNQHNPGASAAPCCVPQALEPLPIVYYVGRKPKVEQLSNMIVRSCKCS

B1: 20E6_H0.2aL1_hIgG1 VH_R50A (antibody, V domains shown)
VH: EVQLVQSGAEVKKPGASVKVSCKASGYTFTSYWMHWVRQAPGQGLEWMGAIDPQSGGIKYAQKFQGRATLTVDTSTSTAYMELSRLRSDDTAVYYCARWDYGGYFDVWGQGTLVTVSS
VL: DIQMTQSPSSLSASVGDRVTITCRASQDITNYLNWYQQKPGKAVKLLIYYTSRLHSGVPSRFSGSGSGTDYTLTISSLQPEDFATYFCQQGDTLPWTFGQGTKLEIKR
Regarding B1, in assay [1], the KD,WT/KD,Ala is 0.

B2: 20E6_H0.2aL1_hIgG1 VL_D92A (antibody, V domains shown)
VH: B1 VH with A50R
VL: B1 VL with D92A
Turning to B2, the KD,WT/KD,Ala in assay [1] was 0.

B3: 20E6_H0.2aL1_hIgG1 VL_N34A (antibody, V domains shown)
VH: B1 VH with A50R
VL: B1 VL with N34A
For the molecule B3, the KD,WT/KD,Ala in assay [1] worked out at 0.07.

B4: 20E6_H0.2aL1_hIgG1 VL_W96A (antibody, V domains shown)
VH: B1 VH with A50R
VL: B1 VL with W96A
Take B4: the KD,WT/KD,Ala in assay [1] turned out to be 0.

B5: 20E6_H0.2aL1_hIgG1 VL_A25G (antibody, V domains shown)
VH: B1 VH with A50R
VL: B1 VL with A25G
Turning to B5, the KD,WT/KD,Ala in assay [1] was 0.09.

B6: 20E6_H0.2aL1_hIgG1 VL_Q90A (antibody, V domains shown)
VH: B1 VH with A50R
VL: B1 VL with Q90A
As to B6, the KD,WT/KD,Ala in assay [1] was found to be 0.

B7: 20E6_H0.2aL1_hIgG1 VL_P95A (antibody, V domains shown)
VH: B1 VH with A50R
VL: B1 VL with P95A
Consider B7, for which the KD,WT/KD,Ala in assay [1] turned out to be 0.

B8: 20E6_H0.2aL1_hIgG1 VH_W99A (antibody, V domains shown)
VH: B1 VH with A50R, W99A
VL: B1 VL
For B8, the KD,WT/KD,Ala in assay [1] was 0.

B9: 20E6_H0.2aL1_hIgG1 VH_G103A (antibody, V domains shown)
VH: B1 VH with A50R, G103A
VL: B1 VL
On to B9, for which the KD,WT/KD,Ala in assay [1] was determined as 0.

B10: 20E6_H0.2aL1_hIgG1 VL_D28A (antibody, V domains shown)
VH: B1 VH with A50R
VL: B1 VL with D28A
Turning to B10, the KD,WT/KD,Ala in assay [1] amounted to 0.

B11: humanized 20E6 F(ab′) binding protein (Fab, V domains shown)
VH: B1 VH with A50R
VL: B1 VL
B11: the dissociation constant Kd (as a rule, the concentration at which binding is half-saturated) was 49.5 nM in assay [2]; 59.4 nM in assay [3]; 48.3 nM in assay [4]; 60.3 nM in assay [5]; 40.8 nM in assay [6]. Also, the off-rate (koff) – broadly, a measure of how fast the partners let go of each other – in assay [2] is 0.0939 s⁻¹; in assay [3], 0.106 s⁻¹; in assay [4], 0.079 s⁻¹; in assay [5], 0.095 s⁻¹; in assay [6], 0.08 s⁻¹. In addition, the association rate constant (kon) (as a rule, the rate constant with which the complex forms) in assay [2] was 1.91e+06 M⁻¹ s⁻¹; in assay [3], 1.79e+06 M⁻¹ s⁻¹; in assay [4], 1.64e+06 M⁻¹ s⁻¹; in assay [5], 1.58e+06 M⁻¹ s⁻¹; in assay [6], 1.96e+06 M⁻¹ s⁻¹.

B12: 20E6_H0.2aL1_hIgG1 VL_Y50A (antibody, V domains shown)
VH: B1 VH with A50R
VL: B1 VL with Y50A
As for B12, the KD,WT/KD,Ala in assay [1] worked out at 0.

B13: 20E6_H0.2aL1_hIgG1 VL_Q27A (antibody, V domains shown)
VH: B1 VH with A50R
VL: B1 VL with Q27A
On to B13, for which the KD,WT/KD,Ala in assay [1] stood at 0.03.

B14: 20E6_H0.2aL1_hIgG1 VH_G102A (antibody, V domains shown)
VH: B1 VH with A50R, G102A
VL: B1 VL
Turning to B14, the KD,WT/KD,Ala in assay [1] came out at 0.

B15: 20E6_H0.2aL1_hIgG1 VL_G91A (antibody, V domains shown)
VH: B1 VH with A50R
VL: B1 VL with G91A
For B15, in assay [1], the KD,WT/KD,Ala is 0.

B16: 20E6_H0.2aL1_hIgG1 VH_Y101A (antibody, V domains shown)
VH: B1 VH with A50R, Y101A
VL: B1 VL
Consider B16, for which the KD,WT/KD,Ala in assay [1] came to 0.

B17: 20E6_H0.2aL1_hIgG1 VL_L33A (antibody, V domains shown)
VH: B1 VH with A50R
VL: B1 VL with L33A
B17: the KD,WT/KD,Ala in assay [1] is 0.08.

B18: 20E6_H0.2aL1_hIgG1 VL_L94A (antibody, V domains shown)
VH: B1 VH with A50R
VL: B1 VL with L94A
Regarding B18, the KD,WT/KD,Ala in assay [1] was 0.

B19: 20E6_H0.2aL1_hIgG1 VH_Y104A (antibody, V domains shown)
VH: B1 VH with A50R, Y104A
VL: B1 VL
For B19, the KD,WT/KD,Ala in assay [1] turned out to be 0.

B20: 20E6_H0.2aL1_hIgG1 VL_Y32A (antibody, V domains shown)
VH: B1 VH with A50R
VL: B1 VL with Y32A
Turning to B20, the KD,WT/KD,Ala in assay [1] was found to be 0.

B21: 20E6_H0.2aL1_hIgG1 VL_T97A (antibody, V domains shown)
VH: B1 VH with A50R
VL: B1 VL with T97A
On to B21, for which, in assay [1], the KD,WT/KD,Ala was determined as 0.01.

B22: 20E6_H0.2aL1_hIgG1 VH_F105A (antibody, V domains shown)
VH: B1 VH with A50R, F105A
VL: B1 VL
Take B22: the KD,WT/KD,Ala in assay [1] amounted to 0.

B23: 28G11_(hyb) (antibody, mouse IgG2b, kappa, V domains shown)
VH: EVKLVESGGGLVQPGGSLSLSCAASGFTFTDYYMSWVRQPPGKALEWLGFIRNKPNGYTTEYSASVKGRFTISRDNSQSILYLQMNVLRAEDSATYYCARYTGGGYFDYWGQGTTLTVSS
VL: DIQMTQTTSSLSASLGDRLTISCRASQDISNYLNWYQQKPDGTVKLLIYYTSRLHSGVPSRFSGSGSGTDYSLTISNLEQADIATYFCQQGDTLPWTFGGGTKLEIKR
On to B23, for which the % GFP+/APC+ cells in assay [7] and in assay [8] was 0.2% each time.
